One molecule from patent US20060034848A1 (published 2006) can be followed below.

The assay addresses T1, LC-myc with the second NPxY motif mutated to APxA (UniProt Q07954 3944-4544, limits assumed).
T1 construct: domain: light chain (LC); The substitutions have no printed residue numbers; also called 2nd NPxY mutant; not shown: C-terminal myc tag
T1 sequence (looked up): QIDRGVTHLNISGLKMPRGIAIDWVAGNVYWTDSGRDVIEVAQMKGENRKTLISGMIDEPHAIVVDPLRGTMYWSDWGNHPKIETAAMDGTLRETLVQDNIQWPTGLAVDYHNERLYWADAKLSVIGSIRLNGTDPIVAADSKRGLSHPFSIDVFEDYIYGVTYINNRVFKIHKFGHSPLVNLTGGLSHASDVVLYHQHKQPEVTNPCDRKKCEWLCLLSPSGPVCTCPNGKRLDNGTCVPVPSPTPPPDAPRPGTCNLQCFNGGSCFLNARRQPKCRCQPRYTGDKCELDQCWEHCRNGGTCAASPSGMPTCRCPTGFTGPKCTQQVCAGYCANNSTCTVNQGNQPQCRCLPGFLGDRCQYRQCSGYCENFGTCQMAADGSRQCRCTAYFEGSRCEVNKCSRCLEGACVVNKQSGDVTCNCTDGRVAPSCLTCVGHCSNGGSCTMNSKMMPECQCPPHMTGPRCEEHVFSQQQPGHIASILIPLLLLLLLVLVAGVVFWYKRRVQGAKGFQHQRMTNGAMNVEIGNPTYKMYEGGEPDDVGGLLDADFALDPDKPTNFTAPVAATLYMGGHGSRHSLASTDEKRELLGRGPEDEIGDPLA
As to the kind of experiment: FLIM/FRET in cells.

B1: BACE (wild type; tag of the construct not stated at that place) (enzyme, human, UniProt P56817 46-501, looked up)
chain: ETDEEPEEPGRRGSFVEMVDNLRGKSGQGYYVEMTVGSPPQTLNILVDTGSSNFAVGAAPHPFLHRYYQRQLSSTYRDLRKGVYVPYTQGKWEGELGTDLVSIPHGPNVTVRANIAAITESDKFFINGSNWEGILGLAYAEIARPDDSLEPFFDSLVKQTHVPNLFSLQLCGAGFPLNQSEVLASVGGSMIIGGIDHSLYTGSLWYTPIRREWYYEVIIVRVEINGQDLKMDCKEYNYDKSIVDSGTTNLRLPKKVFEAAVKSIKAASSTEKFPDGFWLGEQLVCWQAGTTPWNIFPVISLYLMGEVTNQSFRITILPQQYLRPVEDVATSQDDCYKFAISQSSTGTVMGAVIMEGFYVVFDRARKRIGFAVSACHVHDEFRTAAVEGPFVTLDMEDCGYNIPQTDESTLMTIAYVMAAICALFMLPLCLMVCQWRCLRCLRQQHDDFADDISLLK
notes: whole, on cells; Used for the sentences that say only BACE or WT-BACE (NPxY mutant FLIM, Fe65 and mDab1 FRET, shedding, CTF and luciferase assays); also called WT-BACE
For the molecule B1, the binding result is “binds”.
